Changes are numbered by the printed parent chain.

In test [1] the target is T1, canine beta-NGF (cNGF) (canine, UniProt Q29074 110-229 (pig entry)).
T1 chain: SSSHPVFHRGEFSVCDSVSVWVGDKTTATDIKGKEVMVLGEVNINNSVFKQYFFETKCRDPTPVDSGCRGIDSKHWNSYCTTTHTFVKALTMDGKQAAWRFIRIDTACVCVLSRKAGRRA
Description: cell-based or functional assay.

Test [2] deals with T1, canine beta-NGF (cNGF). Description: SPR (Biacore).
Test [3] concerns the target T1, canine beta-NGF (cNGF). Description: cell-based or functional assay.
In test [4] the target is T1, canine beta-NGF (cNGF). Description: SPR (Biacore), cNGF binding.
Test [5] deals with T1, canine beta-NGF (cNGF). Description: SPR (Biacore), cNGF binding; KD column of Table 7.

B1: 16G01-02F03 (antibody, IgG2a, V domains shown)
VH: EVQLQESGAELVKPGASVKLSCKASGYTFTNYWMHWVKQRPGQGLEWIGHIDPSDGETHYNQKFKDKATLTVDKSSSTAYMQLTGLTSEDSAVYYCARFLPDYWGQGTSVTVSS
VL: DIVLTQTPAIMSASPGEKVTMTCRASSSVSSIYLHWYQQKPGSSPKLWIYSTSNLASGVPARFSGSGSGTSYSLTVSSVEAEDAATYYCQLYDNSPLTFGAGT
As for B1, in test [1], the “Average Max % Inhib. (pERK 1/2, CHO cells expressing human TrkA)” value was 27.7%.

B2: H3AQC23L5A (antibody, V domains shown)
VH: EVQLVESGGDLARPGGSLKLSCVVSGFTLTQYGINWVRQAPGKGLQWVTVIWATGATDYNSALKSRFTVSRDNAMNTVYLQMNSLRVEDTAVYYCARDGWWYATSWYFDVWGQGTLVTVSS
VL: DIVMTQTPLSLSVSPGEPASISCKASQDINHYLNWFRQKPDGTVKLLIYYTSSLHSGVPSRFSGSGSGTDFTLRISRVEADDAGVYYCQQGDHFPRTFGQGT
notes: Caninized IgG
In turn, B2 displayed a Kd in test [2] of 0.089 nM. In test [3], the “IC50 [nM] (TrkA cell based assay)” value is 2.32 nM.

B3: H3A02B4VL1 (antibody, V domains shown)
VH: B2 VH
VL: EIVMTQSPASLSLSQEEKVTITCRASQDISNYLNWYQQKPGQAPKLLIYYTSRLHSGVPSRFSGSGSGTDFSFTISSLEPEDVAVYYCQQGNMFPYTFGGGT
notes: Caninized IgG
For B3, the affinity in test [2], expressed as Kd, was 0.16 nM. Moreover, in test [3], the “IC50 [nM] (TrkA cell based assay)” value was 1.4 nM.

B4: H3AQC23L2AL3 (antibody, V domains shown)
VH: B2 VH
VL: B2 VL with K24R, D28S, N30S, H31N, Y32N, T51I, L54F, R96Y
Consider B4, for which the “IC50 [nM] (TrkA cell based assay)” value in test [3] amounted to 2.57 nM.

B5: H3AQC23L2AL1 (antibody, V domains shown)
VH: B2 VH
VL: B2 VL with D28S, T51I, L54F, G91S, D92H, H93T, F94L, R96Y
B5: the “IC50 [nM] (TrkA cell based assay)” value in test [3] was 4.4 nM.

B6: H3AQC23L6A (antibody, V domains shown)
VH: B2 VH
VL: B2 VL with T51V, S52T, S56A
Consider B6, for which the “IC50 [nM] (TrkA cell based assay)” value in test [3] was 16.9 nM.

B7: H3A02B4L1AL1 (antibody, V domains shown)
VH: B2 VH
VL: B3 VL with R24K, S30N, N31H
notes: Caninized IgG
For the molecule B7, the Kd in test [2] stood at 2 nM. Further, the “IC50 [nM] (TrkA cell based assay)” value in test [3] came to 1.56 nM.

B8: H3AQC2301B12L1AL1 (antibody, V domains shown)
VH: B2 VH
VL: B2 VL with D28S, S53R, D92S, H93T, F94L
notes: Caninized IgG
In test [2], B8 returned a Kd of 1.07 nM. In test [3], the “IC50 [nM] (TrkA cell based assay)” value worked out at 0.65 nM.

B9: H3AQC2301B12L5AL2 (antibody, V domains shown)
VH: B2 VH
VL: B2 VL with K24R, N30S, H31N, D92S, H93T, F94L
notes: Caninized IgG
Consider B9, for which, in test [2], binding was put at a Kd of 12.5 nM. Also, the “IC50 [nM] (TrkA cell based assay)” value in test [3] was determined as 9.7 nM.

B10: 182m70 (antibody, V domains shown)
VH: B2 VH
VL: B2 VL with S56G
notes: 51 except in CDR2 (TSSLHG); 51 (CDR2 Pos. 1-6 = residues 51-56); also called Can-182-m70
B10: in test [4], the Kd was determined as 4.9 nM, the koff stood at 9.46e-06 s⁻¹ and the kon amounted to 1930 M⁻¹ s⁻¹. The molecule further came in with a Kd in test [5] of 4.9 nM.

B11: H3AQC2301B12LC (antibody, V domains shown)
VH: B2 VH
VL: B2 VL with K24R, N30S, H31N, S53R, D92S, H93T, F94L
notes: Caninized IgG, light chain QC2301B12VK
In the case of B11, the Kd in test [2] was determined as 1.13 nM. Besides, the “IC50 [nM] (TrkA cell based assay)” value in test [3] was 0.8 nM.

B12: H3AQC2301B12L6AL2 (antibody, V domains shown)
VH: B2 VH
VL: B2 VL with K24R, N30S, H31N, T51V, S52T, S56A, D92S, H93T, F94L
B12: in test [3], the “IC50 [nM] (TrkA cell based assay)” value was found to be 10 nM.

B13: 182m43 (antibody, V domains shown)
VH: B2 VH
VL: B2 VL with S52H, S56N
notes: 51 except in CDR2 (THSLHN); 51 as printed; also called Can-182-m43
In the case of B13, in test [4], the Kd came to 4.32 nM, the koff turned out to be 3.32e-06 s⁻¹ and the kon was 769 M⁻¹ s⁻¹. The same molecule returned a Kd in test [5] of 4.32 nM.

B14: 182m75 (antibody, V domains shown)
VH: B2 VH
VL: B2 VL with S56V
notes: 51 except in CDR2 (TSSLHV); 51 (CDR2 Pos. 1-6 = residues 51-56); also called Can-182-m75
As to B14, in test [4], the Kd is 2.03 nM, the koff is 8.99e-07 s⁻¹ and the kon was found to be 444 M⁻¹ s⁻¹. The same molecule yielded a Kd in test [5] of 2.03 nM.

B15: 182m72 (antibody, V domains shown)
VH: B2 VH
VL: B2 VL with S56Q
notes: 51 except in CDR2 (TSSLHQ); 51 (CDR2 Pos. 1-6 = residues 51-56); also called Can-182-m72
In test [4], B15 displayed a Kd of 0.0741 nM, a koff of 2.79e-07 s⁻¹ and a kon of 3760 M⁻¹ s⁻¹. In test [5], this molecule displayed a Kd of 0.0741 nM.

B16: 182m114 (antibody, V domains shown)
VH: B2 VH
VL: B2 VL with S52A, S56Q
notes: 51 except in CDR2 (TASLHQ); 51 (CDR2 Pos. 1-6 = residues 51-56); also called Can-182-m114
B16: in test [4], the Kd turned out to be 0.707 nM, the koff stood at 1.27e-06 s⁻¹ and the kon came out at 1790 M⁻¹ s⁻¹. In addition, in test [5], binding was put at a Kd of 0.707 nM.

B17: H3AQC2301B12L2AL1 (antibody, V domains shown)
VH: B2 VH
VL: B2 VL with D28S, S53R, D92S, H93T, F94L
notes: Caninized IgG
In test [2], B17 yielded a Kd of 0.435 nM. For the same molecule, the “IC50 [nM] (TrkA cell based assay)” value in test [3] amounted to 0.99 nM.

B18: 15H02-02E01 (antibody, IgG1, V domains shown)
VH: EVQLEQSGPGLVAPSQSLSITCTVSGFSLTGYGVNWVRQPPGKGLEWLGMIWGDGSTDYNSALKSRLSISKDNSKSQVFLKMNSLQTDDTARYYCARDGYYYGTTWYFDVWGAGTTVTVSS
VL: DIVLTQSTSSLSASLGDRVTISCRASQDISNYLNWYQQKPDGTIKLLIYYTSRLHSGVPSRFSGSGSGTDYSLTISNLEQEDIATYFCQQGSTLPRTFGGGT
Consider B18, for which, in test [1], the “Average Max % Inhib. (pERK 1/2, CHO cells expressing human TrkA)” value came out at 88.2% and the “IC50 (pERK 1/2, CHO cells expressing human TrkA)” value amounted to 18.8 nM.

B19: 30E01-02A11 (antibody, IgG1, V domains shown)
VH: B18 VH with E1Q, Q3K, Q6E
VL: B18 VL with S7T
Turning to B19, in test [1], the “Average Max % Inhib. (pERK 1/2, CHO cells expressing human TrkA)” value came to 72.4% and the “IC50 (pERK 1/2, CHO cells expressing human TrkA)” value came out at 9.8 nM.

B20: 02B04-02A08 (antibody, V domains shown)
VH: EVKLEESGPGLVAPSQSLSITCTVSGFSLTGYGVNWVRQPPGKGLEWLGMIWGDGSTDYNSALKSRLNISKDNSKSQVFLKMDSLQTDDTARYYCARGGYDYDVPFFDYWGQGTTLTVSS
VL: B18 VL with L4M, S7T, I44V, S92N, T93M, L94F, R96Y, F98L
In the case of B20, in test [1], the “Average Max % Inhib. (pERK 1/2, CHO cells expressing human TrkA)” value was 82.2% and the “IC50 (pERK 1/2, CHO cells expressing human TrkA)” value is 4 nM.

B21: 01B12 Chimera (antibody, V domains shown)
VH: QVQLKESGPGLVAPSQSLSITCTVSGFSLTGYGVNWVRQPPGKGLEWLGMIWGDGSTDYNSALKSRLSISKDNSKSQVFLKMNSLQTDDTARYYCARDGYYYGTTWYFDVWGAGTTVTV
VL: B18 VL with V3Q, L4M, S7T
notes: Mouse variable domains on canine IgG constant regions; 184 and 160; also called Chim-01B12
As to B21, binding in test [2] was characterised by a dissociation constant (Kd) of 1.18 nM. In addition, the “IC50 [nM] (TrkA cell based assay)” value in test [3] was determined as 1.02 nM.

B22: 20D11-02E10 (antibody, IgG1, V domains shown)
VH: B18 VH with Q6E
VL: DIVITQTPLSLPVSLGDQASISCRSSQSIVHINRHTYLGWYLQKPGQSLKLLIYGVSNRFSGVPDRFSGSGSGTDFTLKISRVEAEDMGVYYCFQGTHVPFTFGSGT
On to B22, for which, in test [1], the “Average Max % Inhib. (pERK 1/2, CHO cells expressing human TrkA)” value worked out at 78.1% and the “IC50 (pERK 1/2, CHO cells expressing human TrkA)” value worked out at 5.5 nM.

B23: 26C08-02F06 (antibody, IgG1, V domains shown)
VH: B20 VH with N68S, D83N, P105S
VL: B18 VL with S7T, I44V, L54F, Q80H, S92N, R96Y
For the molecule B23, in test [1], the “Average Max % Inhib. (pERK 1/2, CHO cells expressing human TrkA)” value turned out to be 57.4% and the “IC50 (pERK 1/2, CHO cells expressing human TrkA)” value was 7.1 nM.

B24: 31F05-02B03 (antibody, IgG1, V domains shown)
VH: B18 VH with E5Q
VL: B18 VL with V3Q, L4M, S7T
Consider B24, for which, in test [1], the “Average Max % Inhib. (pERK 1/2, CHO cells expressing human TrkA)” value was 86.2% and the “IC50 (pERK 1/2, CHO cells expressing human TrkA)” value worked out at 4.1 nM.

B25: 01B12-02B08 (antibody, IgG1, V domains shown)
VH: B18 VH with Q3K, E5Q, Q6E
VL: B18 VL with L4M
Consider B25, for which, in test [1], the “Average Max % Inhib. (pERK 1/2, CHO cells expressing human TrkA)” value stood at 87.1% and the “IC50 (pERK 1/2, CHO cells expressing human TrkA)” value amounted to 4.7 nM.

The record behind these values is patent US20220106391A1 (ZOETIS SERVICES, published 2022).
